The chains are these.
B1: unnamed (parent)
chain 1: MTVEEMDSWIKSWDQM
chain 2: PPGTVDKKMVEKCWKLMDKVVRLCQNPKLALKNSPPYILDLLPDTYQHLRTILSRYEGKMETLGENEYFRVFMENLMKKTKQTISLFKEGKERMYEENSQPRRNLTKLSLIFSHMLAELKGIFPSGLFQGDTFRITKADAAEFWRKAFGEKTIVPWKSFRQALHEVHPISSGLEAMALKSTIDLTCNDYISVFEFDIFTRLFQPWSSLLRNWNSLAVTHPGYMAFLTYDEVKARLQKFIHKPGSYIFRLSCTRLGQWAIGYVTADGNILQTIPHNKPLFQALIDGFREGFYLFPDGRNQNPDLTGLCEP

In the experiment the parent is B1. As to the kind of experiment: phage ELISA. To be noted: with partner chain of the complex shown;; read off a plot. (An ELISA detects its analyte on a solid surface through an enzyme-linked reagent.)
With chain 2 G260E, the response was determined as 0.1 OD at 450 nm.

For the origin of these results see PMC12461627, “Locking CBL TKBD in its native conformation presents a novel therapeutic opportunity in mutant CBL-dependent leukemia” (Molecular Therapy, 2025).
